Test results: PMC12175502, “7β-Hydroxysteroid dehydratase Hsh3 eliminates the 7-hydroxy group of the bile salt ursodeoxycholate during degradation by Sphingobium sp. strain Chol11 and other Sphingomonadaceae” (Applied and Environmental Microbiology, 2025)

Columns and labels:
Hsh2 = test system: T1, Hsh2; test: continuous spectrophotometric assay at […] nm; assay type: biochemical, Sphingobium sp. Chol11; conditions: 50 mM MOPS pH 7.8, 30 °C, 25% ethanol; dehydration; substrate range 50 µM to 1 mM
T1 construct: tag not reported cut

[1] = test system: T2, C[C@]12C=CC(=O)C=C1C[C@H](O)[C@@H]1[C@@H]2CC[C@]2(C)C(=O)CC[C@@H]12; test: purified protein; assay type: biochemical, Sphingobium sp. Chol11; conditions: 50 mM MOPS pH 7.8, 30 °C, 25% ethanol, dehydration, substrate range 50 µM to 1 mM
T2 construct: His-tagged, pET28b(+), E. coli Tuner(DE3), Ni-NTA and desalting gel filtration; tag not reported cut; primers read start MEKLICAL and end AHLDGK before vector C-terminal tag

C[C@]12C=CC(=O)C=C1C[C@@H](O)[C@@H]1[C@@H]2CC[C@]2(C)C(=O)CC[C@@H]12 [XI, 7α-hydroxy-androsta-1,4-diene-3,17-dione]
Km (Hsh2): 250 ± 50 µM

Hsh3 (Nov2c681) (Sphingobium sp.)
Km [1]: 1260 ± 450 µM | kcat [1]: 130 ± 30.1 s⁻¹ | kcat/Km [1]: 103000 M⁻¹ s⁻¹
